Reference: patent US20140271457A1 (AbbVie / Abbott, published 2014)

B1: DVD3213 (bispecific antibody, IgG1)
VH: EVQLVESGGGLVQPGGSLRLSCAASGFTFSNYGVEWVRQAPGKGLEWVSGIWADGSTHYADTVKSRFTISRDNSKNTLYLQMNSLRAEDTAVYYCAREWQHGPVAYWGQGTLVTVSSGGGGSGGGGSEVQLVESGGGLVQPGGSLRLSCAASGFSFSKYWLGWVRQAPGKGLEWVSDIYPGYDYTHYNEKFKDRFTISADTSKNTAYLQMNSLRAEDTAVYYCARSDGSSTYWGQGTLVTVSS
VL: DIQMTQSPSSLSASVGDRVTITCKASQLVSSAVAWYQQKPGKAPKLLIYWASTLHTGVPSRFSGSGSGTDFTLTISSLQPEDFATYYCQQHYRTPFTFGQGTKLEIKRGGSGGGGSGDIQMTQSPSSLSASVGDRVTITCTSSQNIVHSNGNTYLEWYQQKPGKAPKLLIYKVSNRFSGVPSRFSGSGSGTDFTLTISSLQPEDFATYYCFQVSHVPYTFGQGTKVEIKR
B2: DVD3214 (bispecific antibody, IgG1)
VH: EVQLVESGGGLVQPGGSLRLSCAASGFTFSNYGVEWVRQAPGKGLEWVSGIWADGSTHYADTVKSRFTISRDNSKNTLYLQMNSLRAEDTAVYYCAREWQHGPVAYWGQGTLVTVSSASTKGPEVQLVESGGGLVQPGGSLRLSCAASGFSFSKYWLGWVRQAPGKGLEWVSDIYPGYDYTHYNEKFKDRFTISADTSKNTAYLQMNSLRAEDTAVYYCARSDGSSTYWGQGTLVTVSS
VL: DIQMTQSPSSLSASVGDRVTITCKASQLVSSAVAWYQQKPGKAPKLLIYWASTLHTGVPSRFSGSGSGTDFTLTISSLQPEDFATYYCQQHYRTPFTFGQGTKLEIKRTVAAPDIQMTQSPSSLSASVGDRVTITCTSSQNIVHSNGNTYLEWYQQKPGKAPKLLIYKVSNRFSGVPSRFSGSGSGTDFTLTISSLQPEDFATYYCFQVSHVPYTFGQGTKVEIKR
B3: DVD3216 (bispecific antibody, IgG1)
VH: EVQLVESGGGLVQPGGSLRLSCAASGFTFSNYGVEWVRQAPGKGLEWVSGIWADGSTHYADTVKSRFTISRDNSKNTLYLQMNSLRAEDTAVYYCAREWQHGPVAYWGQGTLVTVSSASTKGPEVQLVESGGGLVQPGGSLRLSCAASGFSFSKYWLGWVRQAPGKGLEWVSDIYPGYDYTHYNEKFKDRFTISADTSKNTAYLQMNSLRAEDTAVYYCARSDGSSTYWGQGTLVTVSS
VL: DIQMTQSPSSLSASVGDRVTITCKASQLVSSAVAWYQQKPGKAPKLLIYWASTLHTGVPSRFSGSGSGTDFTLTISSLQPEDFATYYCQQHYRTPFTFGQGTKLEIKRTVAAPSVFIFPPDIQMTQSPSSLSASVGDRVTITCTSSQNIVHSNGNTYLEWYQQKPGKAPKLLIYKVSNRFSGVPSRFSGSGSGTDFTLTISSLQPEDFATYYCFQVSHVPYTFGQGTKVEIKR
B4: DVD3217 (bispecific antibody, IgG1)
VH: EVQLVESGGGLVQPGGSLRLSCAASGFTFSNYGVEWVRQAPGKGLEWVSGIWADGSTHYADTVKSRFTISRDNSKNTLYLQMNSLRAEDTAVYYCAREWQHGPVAYWGQGTLVTVSSASTKGPSVFPLAPEVQLVESGGGLVQPGGSLRLSCAASGFSFSKYWLGWVRQAPGKGLEWVSDIYPGYDYTHYNEKFKDRFTISADTSKNTAYLQMNSLRAEDTAVYYCARSDGSSTYWGQGTLVTVSS
VL: DIQMTQSPSSLSASVGDRVTITCKASQLVSSAVAWYQQKPGKAPKLLIYWASTLHTGVPSRFSGSGSGTDFTLTISSLQPEDFATYYCQQHYRTPFTFGQGTKLEIKRTVAAPDIQMTQSPSSLSASVGDRVTITCTSSQNIVHSNGNTYLEWYQQKPGKAPKLLIYKVSNRFSGVPSRFSGSGSGTDFTLTISSLQPEDFATYYCFQVSHVPYTFGQGTKVEIKR
B5: DVD3218 (bispecific antibody, IgG1)
VH: EVQLVESGGGLVQPGGSLRLSCAASGFSFSKYWLGWVRQAPGKGLEWVSDIYPGYDYTHYNEKFKDRFTISADTSKNTAYLQMNSLRAEDTAVYYCARSDGSSTYWGQGTLVTVSSGGGGSGGGGSEVQLVESGGGLVQPGGSLRLSCAASGFTFSNYGVEWVRQAPGKGLEWVSGIWADGSTHYADTVKSRFTISRDNSKNTLYLQMNSLRAEDTAVYYCAREWQHGPVAYWGQGTLVTVSS
VL: DIQMTQSPSSLSASVGDRVTITCTSSQNIVHSNGNTYLEWYQQKPGKAPKLLIYKVSNRFSGVPSRFSGSGSGTDFTLTISSLQPEDFATYYCFQVSHVPYTFGQGTKVEIKRGGSGGGGSGDIQMTQSPSSLSASVGDRVTITCKASQLVSSAVAWYQQKPGKAPKLLIYWASTLHTGVPSRFSGSGSGTDFTLTISSLQPEDFATYYCQQHYRTPFTFGQGTKLEIKR
B6: DVD3219 (bispecific antibody, IgG1)
VH: EVQLVESGGGLVQPGGSLRLSCAASGFSFSKYWLGWVRQAPGKGLEWVSDIYPGYDYTHYNEKFKDRFTISADTSKNTAYLQMNSLRAEDTAVYYCARSDGSSTYWGQGTLVTVSSASTKGPEVQLVESGGGLVQPGGSLRLSCAASGFTFSNYGVEWVRQAPGKGLEWVSGIWADGSTHYADTVKSRFTISRDNSKNTLYLQMNSLRAEDTAVYYCAREWQHGPVAYWGQGTLVTVSS
VL: DIQMTQSPSSLSASVGDRVTITCTSSQNIVHSNGNTYLEWYQQKPGKAPKLLIYKVSNRFSGVPSRFSGSGSGTDFTLTISSLQPEDFATYYCFQVSHVPYTFGQGTKVEIKRTVAAPDIQMTQSPSSLSASVGDRVTITCKASQLVSSAVAWYQQKPGKAPKLLIYWASTLHTGVPSRFSGSGSGTDFTLTISSLQPEDFATYYCQQHYRTPFTFGQGTKLEIKR
B7: DVD3221 (bispecific antibody, IgG1)
VH: EVQLVESGGGLVQPGGSLRLSCAASGFSFSKYWLGWVRQAPGKGLEWVSDIYPGYDYTHYNEKFKDRFTISADTSKNTAYLQMNSLRAEDTAVYYCARSDGSSTYWGQGTLVTVSSASTKGPEVQLVESGGGLVQPGGSLRLSCAASGFTFSNYGVEWVRQAPGKGLEWVSGIWADGSTHYADTVKSRFTISRDNSKNTLYLQMNSLRAEDTAVYYCAREWQHGPVAYWGQGTLVTVSS
VL: DIQMTQSPSSLSASVGDRVTITCTSSQNIVHSNGNTYLEWYQQKPGKAPKLLIYKVSNRFSGVPSRFSGSGSGTDFTLTISSLQPEDFATYYCFQVSHVPYTFGQGTKVEIKRTVAAPSVFIFPPDIQMTQSPSSLSASVGDRVTITCKASQLVSSAVAWYQQKPGKAPKLLIYWASTLHTGVPSRFSGSGSGTDFTLTISSLQPEDFATYYCQQHYRTPFTFGQGTKLEIKR
B8: DVD3222 (bispecific antibody, IgG1)
VH: EVQLVESGGGLVQPGGSLRLSCAASGFSFSKYWLGWVRQAPGKGLEWVSDIYPGYDYTHYNEKFKDRFTISADTSKNTAYLQMNSLRAEDTAVYYCARSDGSSTYWGQGTLVTVSSASTKGPSVFPLAPEVQLVESGGGLVQPGGSLRLSCAASGFTFSNYGVEWVRQAPGKGLEWVSGIWADGSTHYADTVKSRFTISRDNSKNTLYLQMNSLRAEDTAVYYCAREWQHGPVAYWGQGTLVTVSS
VL: DIQMTQSPSSLSASVGDRVTITCTSSQNIVHSNGNTYLEWYQQKPGKAPKLLIYKVSNRFSGVPSRFSGSGSGTDFTLTISSLQPEDFATYYCFQVSHVPYTFGQGTKVEIKRTVAAPDIQMTQSPSSLSASVGDRVTITCKASQLVSSAVAWYQQKPGKAPKLLIYWASTLHTGVPSRFSGSGSGTDFTLTISSLQPEDFATYYCQQHYRTPFTFGQGTKLEIKR

Target: Recombinant Human TNF-α/TNFSF1A (human, UniProt P01375 77-233)
Experiment: cell-based or functional assay

Recombinant Human TNF-α/TNFSF1A, sequence (P01375 77-233 limits assumed): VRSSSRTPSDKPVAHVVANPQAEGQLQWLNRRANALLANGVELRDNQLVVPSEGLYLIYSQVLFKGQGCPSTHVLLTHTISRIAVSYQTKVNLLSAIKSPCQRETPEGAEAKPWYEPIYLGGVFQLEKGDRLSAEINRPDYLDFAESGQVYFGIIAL

| Binder | N-Terminal VD huTNFα Neutralization Assay IC50 | C-Terminal VD huTNFα Neutralization Assay IC50 |
| --- | --- | --- |
| B1 | 0.01 nM | – |
| B2 | 0.02 nM | – |
| B3 | 0.022 nM | – |
| B4 | 0.008 nM | – |
| B5 | – | 0.413 nM |
| B6 | – | 2.1 nM |
| B7 | – | 0.479 nM |
| B8 | – | 0.243 nM |
